B1: native RGS5 peptide (first 14 amino acids of the methionine excised N terminus of RGS5) [human] / 2-aminoethanethiol (cysteamine) dioxygenase (ADO), biotinylated, for SPR [modified: biotin (N terminally biotinylated; 0.2 mM biotin added at … (parent complex)
chain 1: CKGLAALPHSCLER
chain 2: MPRDNMASLIQRIARQACLTFRGSGGGRGASDRDAASGPEAPMQPGFPENLSKLKSLLTQLRAEDLNIAPRKATLQPLPPNLPPVTYMHIYETDGFSLGVFLLKSGTSIPLHDHPGMHGMLKVLYGTVRISCMDKLDAGGGQRPRALPPEQQFEPPLQPREREAVRPGVLRSRAEYTEASGPCILTPHRDNLHQIDAVEGPAAFLDILAPPYDPDDGRDCHYYRVLEPVRPKEASSSACDLPREVWLLETPQADDFWCEGEPYPGPKVFP

Experimental findings from paper PMC11406360, “The enzymatic oxygen sensor cysteamine dioxygenase binds its protein substrates through their N-termini” (The Journal of Biological Chemistry, 2024) are described below.

By Kd is commonly meant a measure of binding affinity in units of concentration.

In this experiment the parent is B1. The experiment is described as follows: SPR; parent: 290 nM. Background: In SPR one partner is held on a chip, and binding of the other changes the refractive index at the surface.
As for chain 1 R14A, the Kd was 210 nM. With chain 1 P8A, the Kd turned out to be 250 nM. Then chain 1 L7A, with 310 nM; and chain 1 L12A, with 260 nM.

For the variant chain 1 E13A, the Kd worked out at 260 nM.

For chain 1 C11A, the dissociation constant Kd was found to be 300 nM. As for chain 1 H9A, the Kd worked out at 240 nM.

For chain 1 S10A, the equilibrium dissociation constant (Kd) is 350 nM. Next, chain 1 L4A: 220 nM.
